Data from patent publication CN114989291A (ZHEJIANG ANWEILUO DIAGNOSTIC TECH CO LTD, dated 2022).
Values joined by “and” are separate entries in the source; they are usually repeats but may differ in a detail not shown here. Equal entries are not always repeated. Where two headings read alike, the source gives them in different places.

Tests used:
[1] = target: T1, 全长SARS-CoV-2 S蛋白 (野生型, IVCAS 6.7512, GenBank ID: QHD43416.1) (SARS-CoV-2, UniProt P0DTC2 14-1273); assay: cell-based or functional assay
[2] = target: 重组的RBD抗原 (SARS-CoV-2 Spike糖蛋白的RBD区域) (SARS-CoV-2, UniProt P0DTC2 319-541)
[3] = target: SARS-CoV-2真病毒的S蛋白 (SARS-CoV-2, UniProt P0DTC2 14-1273); assay: cell-based or functional assay
[4] = target: T1, 全长SARS-CoV-2 S蛋白 (野生型, IVCAS 6.7512, …); assay: cell-based or functional assay; remark: listed apart in the source

B1: 抗SARS-CoV-2全人源化单克隆抗体1B3 (antibody, V domains shown)
VH: VQLVESGGGVVQPGRSLRLSCAASGFTFSSYAMHWVRQAPGKGLEWVAVISYDGSNKYYADSVKGRFTISRDNSKNTLYLQMNSLRAEDTAVYYCAKVAGGPYYYDSSGRDWYFDLWGRGTLVTVSA
VL: DIQMTQSPSSLSASVGDRVSITCRASQSISSFLNWFQQKPGKAPNLLIYAASSLESGVPSRFSGSGSGTDFTLTISSLQPEDFATYYCQQSYSAPPTFGQGTRLEIKR
Question: How did the “EC50, 假病毒细胞模型中和活性 (luciferase, ACE2-293T细胞)” value [1] turn out when B1 was run?
Answer: 3.86 µg/mL

Question: And the EC50 [2]?
Answer: 0.0134 µg/mL

Question: What about the “EC50, 真病毒感染的细胞模型中和活性 (Vero E6, 结晶紫细胞活率)” value [3] of the same binder?
Answer: 16.4 μg/ml and 109 nM

Question: What about the “EC50, 假病毒细胞模型中和活性 (luciferase, ACE2-293T细胞)” value [4] of the same binder?
Answer: 25.6 nM
